From patent US7842469B2, “Bioluminescence resonance energy transfer (BRET) systems and methods of use thereof” (Stanford University, priority 2005, dated 2010)
Numbering of substitutions follows the chain as printed. Names and notes keep the numbering of the source.

B1: M185V/Q235A: destabilized RLuc double mutant M185V/Q235A for use as a reporter gene (protein)
chain: MASKVYDPEQRKRMITGPQWWARCKQMNVLDSFINYYDSEKHAENAVIFLHGNAASSYLWRHVVPHIEPVARCIIPDLIGMGKSGKSGNGSYRLLDHYKYLTAWFELLNLPKKIIFVGHDWGACLAFHYSYEHQDKIKAIVHAESVVDVIESWDEWPDIEEDIALIKSEEGEKMVLENNFFVETVLPSKIMRKLEPEEFAAYLEPFKEKGEVRRPTLSWPREIPLVKGGKPDVVAIVRNYNAYLRASDDLPKMFIESDPGFFSNAIVEGAKKFPNTEFVKVKGLHFSQEDAPDEMGKYIKSFVERVLKNEQ
modifications: Chemically synthesized Renilla Luciferase
notes: destabilized RLuc double mutant M185V/Q235A for use as a reporter gene
B2: M185V: destabilized RLuc single mutant M185V (without C124A) (protein)
chain: B1 chain with A235Q
modifications: Chemically synthesized Renilla Luciferase
B3: F33R/I34M/C124A: RLuc mutant F33R/I34M/C124A (protein)
chain: B1 chain with F33R, I34M, C124A, V185M, A235Q
B4: E44G/C124A: RLuc mutant E44G/C124A (protein)
chain: B1 chain with E44G, C124A, V185M, A235Q
B5: A54G/A55G/C124A: RLuc mutant A54G/A55G/C124A (protein)
chain: B1 chain with A54G, A55G, C124A, V185M, A235Q
B6: A54P/A55T/C124A: RLuc mutant A54P/A55T/C124A (protein)
chain: B1 chain with A54P, A55T, C124A, V185M, A235Q
B7: A54P/C124A: RLuc mutant A54P/C124A (protein)
chain: B1 chain with A54P, C124A, V185M, A235Q
B8: F116L/C124A: RLuc mutant F116L/C124A (protein)
chain: B1 chain with F116L, C124A, V185M, A235Q
B9: C124A/F180A: RLuc mutant C124A/F180A (protein)
chain: B1 chain with C124A, F180A, V185M, A235Q
B10: C124A/M191L: RLuc mutant C124A/M191L (protein)
chain: B1 chain with C124A, V185M, M191L, A235Q
B11: C124A/E195S/P196D: RLuc mutant C124A/E195S/P196D (protein)
chain: B1 chain with C124A, V185M, E195S, P196D, A235Q
B12: C124A/F199M: RLuc mutant C124A/F199M (protein)
chain: B1 chain with C124A, V185M, F199M, A235Q
B13: C124A/L203R: RLuc mutant C124A/L203R (protein)
chain: B1 chain with C124A, V185M, L203R, A235Q
B14: C124A/G229E: RLuc mutant C124A/G229E (protein)
chain: B1 chain with C124A, V185M, G229E, A235Q
B15: C124A/F261L/F262L: RLuc mutant C124A/F261L/F262L (protein)
chain: B1 chain with C124A, V185M, A235Q, F261L, F262L

assay: Luciferase activity of purified RLuc mutants (light output integrated over 10 s, luminometer); assay type: biochemical; settings: benzyl-coelenterazine; relative to native enzyme
Text: Luminometer Calibration: Light measurements were made using a Turner 20/20 and later a Turner 20/20n luminometer (Turner Designs, Sunnyvale, Calif.). The luminometers were calibrated to absolute units (photons/s) using the luminol light standard performed in dimethyl sulfoxide (DMSO). No corrections were applied for the spectral sensitivity of the luminometer, as the spectral peak of luminol chemiluminescence in DMSO (486 nm) is close to the spectral peak of Renilla Luciferase bioluminescence (482 nm).
Characterization of Renilla Luciferase Mutants: Luciferase activity was measured by adding 1 μl of sample (diluted as necessary in EB containing 1% HSA) to 100 μl room temperature 100 mM sodium phosphate buffer (pH 7), manually adding 1 μl of 0.5 μg/μl coelenterazine or analog, manually mixing, and reading for 10 s in a luminometer. The time between the addition of the luciferin and the start of measurement was approximately 4 s.

Molecule	Activity (relative to RLuc) bc
B1	2.7
B2	2.6
B3	0.15
B4	0.78
B5	0.10
B6	0.15
B7	0.04
B8	1.0
B9	0.01
B10	0.99
B11	0.10
B12	0.44
B13	0.55
B14	0.01
B15	0.00

same assay, conditions: bisdeoxycoelenterazine; relative to native enzyme

Molecule	Activity (relative to RLuc) bdc
B1	20
B2	20
B3	0.20
B4	0.98
B5	0.19
B6	0.22
B7	0.06
B8	1.8
B9	0.01
B10	1.2
B11	0.15
B12	0.46
B13	0.43
B14	0.01
B15	0.00

same assay, conditions: coelenterazine-cp; relative to native enzyme

Molecule	Activity (relative to RLuc) cp
B1	14
B2	12
B3	0.16
B4	0.74
B5	0.06
B6	0.11
B7	0.05
B8	1.3
B9	0.03
B10	0.97
B11	0.12
B12	0.53
B13	0.52
B14	0.03
B15	0.00

same assay, conditions: coelenterazine-n; relative to native enzyme

Molecule	Activity (relative to RLuc) n
B1	7.1
B2	4.1
B3	0.12
B4	0.66
B5	0.15
B6	0.38
B7	0.08
B8	0.88
B9	0.01
B10	1.0
B11	0.10
B12	0.49
B13	0.41
B14	0.03
B15	0.00

same assay, conditions: native coelenterazine

Molecule	improvement in light output (activity) compared to native RLuc
B1	5 fold
B2	about 4 fold

same assay, conditions: native coelenterazine; relative to native enzyme

Molecule	Activity (relative to RLuc) native
B1	4.8
B2	4.4
B3	0.15
B4	0.94
B5	0.12
B6	0.21
B7	0.05
B8	1.3
B9	0.02
B10	1.1
B11	0.12
B12	0.58
B13	0.55
B14	0.02
B15	0.00

assay: Serum stability in mouse serum at 37° C.; assay type: in vitro ADME; settings: mouse serum, 37° C., mono-exponential fit
Protocol: (§1) Serum stability measurements were done by mixing 0.5 μl dilute Luciferase with either 20 μl mouse serum or 50 μl rat serum (Equitech-Bio, Kerrville, Tex.) placing the sample in a 37° C. incubator, and removing aliquots for activity testing. To calculate serum half-lives, mono-exponential decay curves were fit to the serum stability data using a Nelder/Mead Simplex non-linear least squares minimization algorithm provided by the Octave numerical programming language. Emission spectra at ambient temperature were measured using a Triax 320 (Horiba Jobin Yvon, Edison, N.J.), which incorporates an optical grating device with a liquid N2 cooled CCD detector.

Molecule	Serum τ1/2 (h) mouse
B1	0.5 h
B2	0.8 h
B3	0.3 h
B4	2.6 h
B5	2.4 h
B6	119 h
B7	14 h
B8	11 h
B9	1.6 h
B10	6.5 h
B11	1.0 h
B12	6.7 h
B13	2.7 h
B14	1.9 h

same assay, conditions: murine serum

Molecule	stability (lability) compared to the native enzyme
B1	half the stability

same assay, conditions: murine serum; listed as double mutant

Molecule	stability (lability) compared to the native enzyme
B1	twice the lability

assay: Bioluminescence emission spectra; assay type: physicochemical; settings: emission spectrum with native coelenterazine
Protocol: as §1

Molecule	Wavelength (nm) mean	Wavelength (nm) peak
B3	497 nm	481 nm
B4	502 nm	486 nm
B5	492 nm	476 nm
B6	483 nm	470 nm
B7	482 nm	468 nm
B8	502 nm	486 nm
B9	504 nm	488 nm
B10	496 nm	480 nm
B11	498 nm	482 nm
B12	495 nm	480 nm
B13	501 nm	484 nm
B14	490 nm	473 nm

assay: Serum stability in rat serum at 37° C.; assay type: in vitro ADME; settings: mono-exponential fit
Protocol: as §1

Molecule	Serum τ1/2 (h) rat
B1	0.2 h
B2	0.3 h
B3	0.3 h
B4	3.3 h
B5	3.0 h
B6	129 h
B7	13 h
B8	9.4 h
B9	1.6 h
B10	5.1 h
B11	0.7 h
B12	6.0 h
B13	2.2 h
B14	1.8 h
